Here are results for 2 molecules from patent US20260209325A1 (SCHOLAR ROCK, published 2026).

The target in assay [1] is T1, human pro-myostatin (human, UniProt O14793 24-375, biotinylated (in the SPR assay)).
T1 construct: Disulfide-linked homodimer; also called proGDF8 (human)
In words: plate binding assay, OD 450 nm, antibody titrated 0.0003 to 100 nM, panel 'Hu-Pro-GDF-8 Plate 2' (method not described in the text).

Assay [2] concerns the target recombinant human latent myostatin (human, UniProt O14793 24-375, biotinylated (in the Octet pH assay only)). Description: cell-based or functional assay.
Assay [3] concerns the target T1, human pro-myostatin. Description: cell-based or functional assay.
Assay [4] addresses T2, cyno pro-myostatin (cynomolgus monkey, Biotinylated for capture in the SPR assay (site not stated). The native form is a disulfide-linked homodimer, partly furin-cleaved; one chain is given.).
T2 construct: also called proGDF8 (cynomolgus); cynomolgus monkey pro-myostatin
Description: plate binding assay, OD 450 nm, antibody titrated 0.0003 to 100 nM, panel 'Cyno-Pro-GDF-8 Plate 2' (method not described in the text).

For assay [5], the target named is T2, cyno pro-myostatin. Description: SPR Biacore 8K, biotin-antigen captured.
The target of assay [6] is T1, human pro-myostatin. Description: SPR Biacore 8K, biotin-antigen captured.
Assay [7] addresses T3, murine pro-myostatin (mouse, UniProt O08689 25-376, biotinylated (in the SPR assay)).
T3 construct: also called proGDF8 (mouse); mouse pro-myostatin
Description: SPR Biacore 8K, biotin-antigen captured.

Assay [8] addresses T3, murine pro-myostatin. Description: plate binding assay, OD 450 nm, antibody titrated 0.0003 to 100 nM, panel 'Mu-Pro-GDF-8 Plate 2' (method not described in the text).
The target in assay [9] is T3, murine pro-myostatin. Description: plate binding assay, absorbance at 450 nm, antibody titrated 100 to about 0.002 nM, panel 'Murine Pure Pro-GDF-8' (method not described in the text).
The target of assay [10] is T2, cyno pro-myostatin. In words: plate binding assay, absorbance at 450 nm, antibody titrated 100 to about 0.002 nM, panel 'Cyno Pure Pro-GDF-8' (method not described in the text).
In assay [11] the target is T1, human pro-myostatin. Description: plate binding assay, absorbance at 450 nm, antibody titrated 100 to about 0.002 nM, panel 'Human Pure Pro-GDF-8' (method not described in the text).

B1: Ab121 (antibody, human IgG4 S228P, kappa, V domains shown)
VH: QVTLRESGPALVKPTQTLTLTCTVSGFSFSTSGMVVNWIRQPPGKALEWLAMIDWDADNIVYNSALKSRLTISKDTSKNQVVLTMTNMDPVDTATYYCAKDTGSGWFDAFDIWGQGTMVTVSS
VL: DIVMTQSPDSLAVSLGERATINCKSSQSVLYSSTNQNFLAWYQQKPGQPPKLLIYQASTLQNGVPDRFSGSGSGTDFTLTISSLQAEDVAVYYCQQYLTTPYTFGGGTKVEIKR
With B1, the “EC50 (read off the curve)” value with human pro-myostatin [1], with cyno pro-myostatin [4] and in the assay with murine pro-myostatin [8] was about 200 pM in each case. Besides, the “IC50 (nM) Latent + mTLL2” value in [2] turned out to be 0.386 nM. Further, the “IC50 (nM) Pro + Furin” value with human pro-myostatin [3] turned out to be 0.143 nM. In addition, the Kd in the assay with cyno pro-myostatin [5] was found to be 106 pM; with human pro-myostatin [6], 101 pM; with murine pro-myostatin [7], 187 pM. Also, the koff came out at 0.000365 s⁻¹ with cyno pro-myostatin [5], 0.000318 s⁻¹ in the assay with human pro-myostatin [6] and 0.000608 s⁻¹ with murine pro-myostatin [7]. The kon with cyno pro-myostatin [5] stood at 3.45e+06 M⁻¹ s⁻¹; with human pro-myostatin [6], 3.16e+06 M⁻¹ s⁻¹; with murine pro-myostatin [7] it was 3.24e+06 M⁻¹ s⁻¹.

B2: Ab104 (antibody, human IgG4 S228P, kappa, V domains shown)
VH: EVQLVESGGGLVQPGGSLRLSCAASGSAFSSYGMSWVRQAPGKGLELVASINSNGGSTYYPDSVKGRFTISRDNAKNSLYLQMNSLRAEDTAVYYCARDLLVKFLSWSHYYGMDVWGQGTTVTVSS
VL: DIVMTQSPLSLPVTPGEPASISCRSSQSLLHSSGHNFLHWYLQKPGQSPQLLIYEVSNRVSGVPDRFSGSGSGTDFTLKISRVEAEDVGVYYCMQQTQYPPTFGGGTKVEIKR
In the case of B2, the “EC50 (read off the curve)” value with murine pro-myostatin [9] was about 600 pM; in the assay with cyno pro-myostatin [10] it was about 700 pM; in the assay with human pro-myostatin [11], about 500 pM. Further, the “IC50 (nM) Latent + mTLL2” value in assay [2] worked out at 0.22 nM. Also, the “IC50 (nM) Pro + Furin” value with human pro-myostatin [3] worked out at 0.363 nM. Also, the Kd in the assay with cyno pro-myostatin [5] amounted to 76 pM; with human pro-myostatin [6], 100 pM; with murine pro-myostatin [7], 145 pM. The results for the koff with cyno pro-myostatin [5], with human pro-myostatin [6] and with murine pro-myostatin [7] were 0.000322 s⁻¹, 0.000381 s⁻¹ and 0.000518 s⁻¹, respectively. Further, the results for the kon with cyno pro-myostatin [5], with human pro-myostatin [6] and in the assay with murine pro-myostatin [7] were 4.21e+06 M⁻¹ s⁻¹, 3.82e+06 M⁻¹ s⁻¹ and 3.58e+06 M⁻¹ s⁻¹, respectively.
